The subject of the series is K4 kissing-loop RNA reporter. In words: apparent KD of K4 kissing-loop reporter; higher = weaker reporter binding. The following applies: Eterna round: R107. The procedure:
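RNA-MaP round R107: designed RNA switches with theophylline, tryptophan, arginine or FMN aptamers are transcribed on-chip within common flanks. They are titrated with a labelled K4 kissing-loop RNA reporter in RNA-MaP buffer (100 mM Tris pH 7.5, 80 mM KCl, 4 mM MgCl2), without ligand or with the indicated ligand. Median apparent KD per design.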

The mark [1] stands for this setting: input ligand: theophylline 20 uM.
Setting [2] is: input ligand: tryptophan 2.4 mM.
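Also: bound reporter read as fluorescence of individual clusters on recovered sequencing chips by microscopy, with normalized cluster intensities fitted with a binding model.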

In the case of “AAGCAGUCACUCGAAGCCAUCGAAGAUGGCCGAGGACCGGUACGGCCGCCACUCGGAGUGAUGUUCCGAAGACUGCAAAAUAAAA”, the “apparent KD of K4 kissing-loop reporter” value was found to be 0.313 µM (input ligand: FMN 200 uM); 0.303 µM (input ligand: arginine 13.2 mM); 0.355 µM (input ligand: none); 0.363 µM under setting [1]; 0.306 µM under setting [2].
Regarding “AAGGAAUGUAUAGAUUAUAUACAUUCAACAGAGGAUAUGCAUUAUUGCAGAAGGCUGAAUGCAGUGAUGUUGCAAUAAUUAUUUA [#09 K4 FMN A Same State]”, the “apparent KD of K4 kissing-loop reporter” value is, setting by setting: (input ligand: FMN 200 uM) 0.0605 µM; (input ligand: arginine 13.2 mM) 0.199 µM; (input ligand: none) 0.181 µM; under setting [1], 0.291 µM; under setting [2], 0.129 µM.
As for “AAGGUAUCACCACAACAUCACUAAGGUGAUACCAGCAUCGAAAGAUGCCCUUGGCAGCACCAACUUGCAGUGAUGUUGCAAGUAA [(T)'-(H)'-(T1)-(T2)-(H1)-(H2)_Design9]”, the “apparent KD of K4 kissing-loop reporter” value runs as follows: (input ligand: FMN 200 uM) 0.417 µM; (input ligand: arginine 13.2 mM) 0.31 µM; (input ligand: none) 0.365 µM; under setting [1], 0.438 µM; under setting [2], 0.366 µM.
Turning to “AAGUCUCGUUAAUUCGAGGUUACGAUCGAUACCAGUAGCGAGAGGUACCCUUGGCAGCGAAGUGAGUGAUGUUCAUGAAAGAAGA [KL-XTheoA12]”, the “apparent KD of K4 kissing-loop reporter” value (input ligand: FMN 200 uM) was found to be 0.0785 µM; the “apparent KD of K4 kissing-loop reporter” value (input ligand: arginine 13.2 mM) amounted to 0.119 µM; the “apparent KD of K4 kissing-loop reporter” value (input ligand: none) is 0.0927 µM; the “apparent KD of K4 kissing-loop reporter” value under setting [1] was 0.131 µM; the “apparent KD of K4 kissing-loop reporter” value under setting [2] is 0.078 µM.
For “AAGUGAUGUUGUAGUGAUGUUGUGAUGUUGCAGGAUAUAUAGUGAUGUAGAAGGGUAUGUACAGUUUUUUUUUUUGAGUGUUGAU [sscsmullin]” the same measures were 0.0797 µM, 0.036 µM, 0.0622 µM, 0.0478 µM and 0.0662 µM.
Taken in the same sequence, the figures for “AAGUGAUGUUGUAGUGAUGUUGUGAUGUUGCAGGAUAUAUAGUGAUGUAGAAGGGUAUGUGCAGUUUUCUUUUUUGAGUGUUGAU [aavamullin]” were 0.0721 µM, 0.0308 µM, 0.0571 µM, 0.0437 µM and 0.0569 µM.
For “AAUAAAAUCACGGCCGCCACUGAAUAAUUGGUAAGUAGUGAUGUUACUUUACUUUUCUUAUUUAACAGGACCGGGUGAAUAUUUA [JR_ExcTryptoB_Sub009]” the same measures were 0.104 µM, 0.0834 µM, 0.0985 µM, 0.0882 µM and 0.123 µM.
Take “AAUAAACAGUCGGCCGCCACUUCAAUAGACUUAUUAUUGAAUGGUGUAGUUCUUCAGUGAUGUUGAAGGACCGGGACUUUCGCGC [Isesator]”: the “apparent KD of K4 kissing-loop reporter” value reads like this: (input ligand: FMN 200 uM) 0.157 µM; (input ligand: arginine 13.2 mM) 0.134 µM; (input ligand: none) 0.145 µM; under setting [1], 0.139 µM; under setting [2], 0.158 µM.
For “AAUAAGGAGUGAUGUUCCAAGUGAUGUUAACGAGGACCGGUACGGCCGCCACUCGAUACGGCCGGAAAAUAAAAUAAAAUAAAAU [Same State - Tryptophan A (Freestyle 1)]” the same measures were 0.103 µM, 0.119 µM, 0.134 µM, 0.12 µM and 0.124 µM.
For “AAUAAGGUCGCCGAUACCAGCGCAGGCAGAGCAAAGCUCUGCCAAGUAGUGAUGUUACUGCGCCCUUGGCAGCGGUGGCACGACC [Omei KL Theo B SS C v3]” the same measures were 0.196 µM, 0.157 µM, 0.163 µM, 0.123 µM and 0.167 µM.
Taken in the same sequence, the figures for “AAUAUAUAGUGAAGGAGCGCGAUAAGCAGUGAUGUUGCUUUGUUAUGAUUGUCUAUUUUUACGCAGGUAGGUCGCACUAUAUAUA [JR_ExcArginiB_Sub020]” were 0.165 µM, 0.104 µM, 0.126 µM, 0.109 µM and 0.122 µM.
“AAUGUACAAGUGAUGUUUGUACUUUCCGAAGGAGCGUCUAAUAAGACAGGUAGGUCGCGGAUUAUCAUAAUUAUCAGGUUUUCAA [JR_SSArginiA_Sub015]”: the “apparent KD of K4 kissing-loop reporter” value is, setting by setting: (input ligand: FMN 200 uM) 0.0988 µM; (input ligand: arginine 13.2 mM) 0.0888 µM; (input ligand: none) 0.0924 µM; under setting [1], 0.0891 µM; under setting [2], 0.0909 µM.
Consider “AAUUAAUGUAUAGAUUAUAUACAUUAAUCAGAGGAUAUGCUUUGUUGCAGAAGGCUGAAUGCAGUGAUGUUGCAAUUUUAAUUUA [JR_SSFMNA_Sub005]”, for which the “apparent KD of K4 kissing-loop reporter” value by setting is: (input ligand: FMN 200 uM) 0.0508 µM; (input ligand: arginine 13.2 mM) 0.0998 µM; (input ligand: none) 0.0547 µM; under setting [1], 0.0873 µM; under setting [2], 0.0467 µM.
For the sequence “AAUUGAGUGACGGCCGCCACUAGAGUGAUUUUUUUGUUUGAGUGAUGUUUUGAUGUUUGAUUUUGUAGGACCGGGUUGAGUGAUG [qqxzmullin]”, the “apparent KD of K4 kissing-loop reporter” value (input ligand: FMN 200 uM) stood at 0.305 µM; the “apparent KD of K4 kissing-loop reporter” value (input ligand: arginine 13.2 mM) came to 0.306 µM; the “apparent KD of K4 kissing-loop reporter” value (input ligand: none) amounted to 0.357 µM; the “apparent KD of K4 kissing-loop reporter” value under setting [1] turned out to be 0.528 µM; the “apparent KD of K4 kissing-loop reporter” value under setting [2] was determined as 0.247 µM.
With “AAUUUCGGAUACAUCAUAGUUUUAAUUCGGCGAGGACCGGUACGGCCGCCACUCGGUAUAGACGCGUCCAGUGAUGUUGGCGCUU [theeternabot_sameState_KL_Trp_A_45]”, the “apparent KD of K4 kissing-loop reporter” value was determined as 0.262 µM (input ligand: FMN 200 uM); 0.193 µM (input ligand: arginine 13.2 mM); 0.237 µM (input ligand: none); 0.26 µM under setting [1]; 0.223 µM under setting [2].
As for “ACACUAUCGUCAUAGACGGUAGUGAACACACAGGAUAUGAGUGAUGUUAGAAGGGUGUAAGACUGUAUCGAAUAGAUACAGUCAA [FmnA 7 #K4BetweenAptamer #OpenEnded]”, the “apparent KD of K4 kissing-loop reporter” value reads like this: (input ligand: FMN 200 uM) 0.4 µM; (input ligand: arginine 13.2 mM) 0.142 µM; (input ligand: none) 0.204 µM; under setting [1], 0.192 µM; under setting [2], 0.19 µM.
Consider “ACACUCGGCUCGGCCGCCACUCCAGUGAUGUUGGAGUCAUAGCUAUGACGAGAAGAGCGUUUUCGGAGGACCGGGAGCUCACAGG [Leveeder]”, for which the “apparent KD of K4 kissing-loop reporter” value (input ligand: FMN 200 uM) came to 0.338 µM; the “apparent KD of K4 kissing-loop reporter” value (input ligand: arginine 13.2 mM) worked out at 0.261 µM; the “apparent KD of K4 kissing-loop reporter” value (input ligand: none) is 0.359 µM; the “apparent KD of K4 kissing-loop reporter” value under setting [1] was 0.351 µM; the “apparent KD of K4 kissing-loop reporter” value under setting [2] worked out at 0.222 µM.
Taken in the same sequence, the figures for “ACACUUUACGUAGGAUAUGCGACGAGUGAUGUUCGUCAGGCGGCUCUAGAUUAAACAAGCCGCCUAGCAGAAGGACGGGCAGUGU [Teaanso]” were 0.154 µM, 0.145 µM, 0.164 µM, 0.16 µM and 0.163 µM.
Taken in the same sequence, the figures for “ACAGUUGCUAGUGAUACCAGACUAGCACUACGUAAUAUGUCAAGUGAUGUUUGACAACUAGUCCCUUGGCAGCGCGAUACGACUG [#11 K4 Theophylline B Same State]” were 0.235 µM, 0.289 µM, 0.259 µM, 0.269 µM and 0.225 µM.
Take “ACAUCGGUUGAGAGUGAUGUUCCUUGUGUUCGAGGACCGGUACGGCCGCCACUCGGGUAGAAAAUAAAAGAUGUGUUUGAUUUUU [BDazzled - #15 SS Tryptophan A]”: the “apparent KD of K4 kissing-loop reporter” value is, setting by setting: (input ligand: FMN 200 uM) 0.26 µM; (input ligand: arginine 13.2 mM) 0.0421 µM; (input ligand: none) 0.143 µM; under setting [1], 0.275 µM; under setting [2], 0.223 µM.
As for “ACCAUCAAAGAUGGCCAGGACUCCGCUGAUACCAGAGUGAAAACACUCCCUUGGCAGCAGGUGAGUGAUGUUCACGAGUCCUGGA [Omel KL Theo A SS B v6]”, the “apparent KD of K4 kissing-loop reporter” value is, setting by setting: (input ligand: FMN 200 uM) 0.986 µM; (input ligand: arginine 13.2 mM) 0.33 µM; (input ligand: none) 0.476 µM; under setting [1], 0.448 µM; under setting [2], 0.836 µM.

(Values after the supplement of paper PMC9170038.)
